Results reported in publication PMC9482650, “Quantitative fragmentomics allow affinity mapping of interactomes” (Nature Communications, 2022).

B1: UNC93A, Q86WB7 (peptide)
chain: AEDEEIQTKM
B2: YAP1, P46937 (peptide)
chain: LDKESFLTWL

Target: T1, APBA1_2, Q02410
T1 sequence (Q02410 742-832, limits assumed, looked up): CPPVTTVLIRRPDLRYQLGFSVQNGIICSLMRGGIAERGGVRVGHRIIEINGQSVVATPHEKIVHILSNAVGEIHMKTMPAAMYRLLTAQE
Assay: holdup assay
Set-up: key: below the threshold = too weak to quantify, mostly under pKd 3.1 to 4
Settings: plain residues with an end cap or a label only (N-terminal biotin on a linker: ado-ado)

Row | Binder | pKd
1 | B1 | below the threshold
2 | B2 | 4.88

Target: T2, APBA2_1, Q99767
T2 sequence (Q99767 563-664, limits assumed, looked up): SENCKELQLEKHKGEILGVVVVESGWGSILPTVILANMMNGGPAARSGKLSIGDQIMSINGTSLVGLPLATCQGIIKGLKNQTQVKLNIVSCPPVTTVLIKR
Assay: holdup assay
Set-up: key: below the threshold = too weak to quantify, mostly under pKd 3.1 to 4
Settings: plain residues with an end cap or a label only (N-terminal biotin on a linker: ado-ado)

Row | Binder | pKd
3 | B1 | below the threshold
4 | B2 | below the threshold

Target: CASK, O14936
Assay: holdup assay
Set-up: key: below the threshold = too weak to quantify, mostly under pKd 3.1 to 4
Settings: plain residues with an end cap or a label only (N-terminal biotin on a linker: ado-ado)

CASK, O14936, sequence (O14936 487-570): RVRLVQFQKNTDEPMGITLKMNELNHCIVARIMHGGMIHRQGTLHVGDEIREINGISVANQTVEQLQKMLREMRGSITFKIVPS

Row | Binder | pKd
5 | B1 | below the threshold
6 | B2 | below the threshold

Target: T3, DFNB31_1, Q9P202
T3 sequence (Q9P202 135-233, limits assumed, looked up): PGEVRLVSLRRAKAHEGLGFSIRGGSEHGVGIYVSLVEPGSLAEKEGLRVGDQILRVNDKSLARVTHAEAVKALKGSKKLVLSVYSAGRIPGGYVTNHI
Assay: holdup assay
Set-up: key: below the threshold = too weak to quantify, mostly under pKd 3.1 to 4
Settings: plain residues with an end cap or a label only (N-terminal biotin on a linker: ado-ado)

Row | Binder | pKd
7 | B1 | below the threshold
8 | B2 | 3.77

Target: T4, DFNB31_2, Q9P202
T4 sequence (Q9P202 274-371, limits assumed, looked up): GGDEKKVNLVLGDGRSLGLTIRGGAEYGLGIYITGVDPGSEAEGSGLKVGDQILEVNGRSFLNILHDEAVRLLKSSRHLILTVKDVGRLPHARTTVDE
Assay: holdup assay
Set-up: key: below the threshold = too weak to quantify, mostly under pKd 3.1 to 4
Settings: plain residues with an end cap or a label only (N-terminal biotin on a linker: ado-ado)

Row | Binder | pKd
9 | B1 | below the threshold
10 | B2 | below the threshold

Target: DLG1_1, Q12959
Assay: holdup assay
Set-up: key: below the threshold = too weak to quantify, mostly under pKd 3.1 to 4
Settings: plain residues with an end cap or a label only (N-terminal biotin on a linker: ado-ado)

Row | Binder | pKd
11 | B1 | below the threshold
12 | B2 | 4.01

Target: DLG1_2, Q12959
Assay: holdup assay
Set-up: key: below the threshold = too weak to quantify, mostly under pKd 3.1 to 4
Settings: plain residues with an end cap or a label only (N-terminal biotin on a linker: ado-ado)

Row | Binder | pKd
13 | B1 | below the threshold
14 | B2 | below the threshold

Target: DLG1_3, Q12959
Assay: holdup assay
Set-up: key: below the threshold = too weak to quantify, mostly under pKd 3.1 to 4
Settings: plain residues with an end cap or a label only (N-terminal biotin on a linker: ado-ado)

Row | Binder | pKd
15 | B1 | below the threshold
16 | B2 | below the threshold

Target: GIPC2, Q8TF65
Assay: holdup assay
Set-up: key: below the threshold = too weak to quantify, mostly under pKd 3.1 to 4
Settings: plain residues with an end cap or a label only (N-terminal biotin on a linker: ado-ado)

GIPC2, Q8TF65, sequence (Q8TF65 112-203): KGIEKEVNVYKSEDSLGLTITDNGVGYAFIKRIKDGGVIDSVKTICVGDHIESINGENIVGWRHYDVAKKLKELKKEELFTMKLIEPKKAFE

Row | Binder | pKd
17 | B1 | below the threshold
18 | B2 | below the threshold

Target: T5, GRIP1_5, Q9Y3R0
T5 sequence (Q9Y3R0 568-668, limits assumed, looked up): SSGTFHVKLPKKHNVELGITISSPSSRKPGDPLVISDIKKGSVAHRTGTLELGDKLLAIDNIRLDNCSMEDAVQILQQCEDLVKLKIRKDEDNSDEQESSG
Assay: holdup assay
Set-up: key: below the threshold = too weak to quantify, mostly under pKd 3.1 to 4
Settings: plain residues with an end cap or a label only (N-terminal biotin on a linker: ado-ado)

Row | Binder | pKd
19 | B1 | below the threshold
20 | B2 | below the threshold

Target: GRIP2_6, Q9C0E4
Assay: holdup assay
Set-up: key: below the threshold = too weak to quantify, mostly under pKd 3.1 to 4
Settings: plain residues with an end cap or a label only (N-terminal biotin on a linker: ado-ado)

GRIP2_6, Q9C0E4, sequence (Q9C0E4 648-740): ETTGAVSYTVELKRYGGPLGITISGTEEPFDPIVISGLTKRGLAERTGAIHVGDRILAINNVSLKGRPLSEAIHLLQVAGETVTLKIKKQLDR

Row | Binder | pKd
21 | B1 | below the threshold
22 | B2 | below the threshold

Target: T6, HTRA4, P83105
T6 sequence (P83105 378-476, limits assumed, looked up): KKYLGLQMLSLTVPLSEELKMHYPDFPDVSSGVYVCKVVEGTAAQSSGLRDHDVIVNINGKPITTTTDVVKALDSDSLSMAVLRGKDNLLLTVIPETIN
Assay: holdup assay
Set-up: key: below the threshold = too weak to quantify, mostly under pKd 3.1 to 4
Settings: plain residues with an end cap or a label only (N-terminal biotin on a linker: ado-ado)

Row | Binder | pKd
23 | B1 | 3.8
24 | B2 | 4.65

Target: Inadl_3, Q8NI35
Assay: holdup assay
Set-up: key: below the threshold = too weak to quantify, mostly under pKd 3.1 to 4
Settings: plain residues with an end cap or a label only (N-terminal biotin on a linker: ado-ado)

Inadl_3, Q8NI35, sequence (Q8NI35 359-469): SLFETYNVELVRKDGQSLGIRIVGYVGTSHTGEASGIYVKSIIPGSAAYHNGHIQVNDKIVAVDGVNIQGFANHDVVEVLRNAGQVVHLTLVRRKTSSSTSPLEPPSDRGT

Row | Binder | pKd
25 | B1 | below the threshold
26 | B2 | 4.38

Target: T7, LNX2_3, Q8N448
T7 sequence (Q8N448 463-564, limits assumed, looked up): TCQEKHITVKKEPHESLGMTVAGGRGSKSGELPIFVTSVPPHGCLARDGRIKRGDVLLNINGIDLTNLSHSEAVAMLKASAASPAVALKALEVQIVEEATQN
Assay: holdup assay
Set-up: key: below the threshold = too weak to quantify, mostly under pKd 3.1 to 4
Settings: plain residues with an end cap or a label only (N-terminal biotin on a linker: ado-ado)

Row | Binder | pKd
27 | B1 | below the threshold
28 | B2 | below the threshold

Target: T8, LRRC7, Q96NW7
T8 sequence (Q96NW7 1440-1537, limits assumed, looked up): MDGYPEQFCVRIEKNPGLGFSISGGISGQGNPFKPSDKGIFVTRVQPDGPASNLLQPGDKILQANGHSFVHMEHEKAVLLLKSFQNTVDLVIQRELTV
Assay: holdup assay
Set-up: key: below the threshold = too weak to quantify, mostly under pKd 3.1 to 4
Settings: plain residues with an end cap or a label only (N-terminal biotin on a linker: ado-ado)

Row | Binder | pKd
29 | B1 | below the threshold
30 | B2 | 4.17

Target: MAGI2_6, Q86UL8
Assay: holdup assay
Set-up: key: below the threshold = too weak to quantify, mostly under pKd 3.1 to 4
Settings: plain residues with an end cap or a label only (N-terminal biotin on a linker: ado-ado)

MAGI2_6, Q86UL8, sequence (Q86UL8 1141-1229): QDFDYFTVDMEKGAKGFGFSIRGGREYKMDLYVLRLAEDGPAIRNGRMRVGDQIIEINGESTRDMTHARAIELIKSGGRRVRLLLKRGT

Row | Binder | pKd
31 | B1 | below the threshold
32 | B2 | 4.82

Target: MAST1, Q9Y2H9
Assay: holdup assay
Set-up: key: below the threshold = too weak to quantify, mostly under pKd 3.1 to 4
Settings: plain residues with an end cap or a label only (N-terminal biotin on a linker: ado-ado)

MAST1, Q9Y2H9, sequence (Q9Y2H9 962-1065): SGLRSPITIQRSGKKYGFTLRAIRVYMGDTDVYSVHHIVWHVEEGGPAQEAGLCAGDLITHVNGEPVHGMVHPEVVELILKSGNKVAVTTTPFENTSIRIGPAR

Row | Binder | pKd
33 | B1 | 4.72
34 | B2 | 4.28

Target: NHERF2_2, Q15599
Assay: holdup assay
Set-up: key: below the threshold = too weak to quantify, mostly under pKd 3.1 to 4
Settings: plain residues with an end cap or a label only (N-terminal biotin on a linker: ado-ado)

NHERF2_2, Q15599, sequence (Q15599 142-238): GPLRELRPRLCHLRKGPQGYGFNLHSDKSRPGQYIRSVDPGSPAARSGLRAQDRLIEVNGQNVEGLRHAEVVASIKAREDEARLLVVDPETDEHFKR

Row | Binder | pKd
35 | B1 | 4.81
36 | B2 | 5.19

Target: T9, NHERF3_1, Q5T2W1
T9 sequence (Q5T2W1 4-100, limits assumed, looked up): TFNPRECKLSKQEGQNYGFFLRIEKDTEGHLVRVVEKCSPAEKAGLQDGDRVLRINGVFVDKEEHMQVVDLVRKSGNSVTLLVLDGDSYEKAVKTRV
Assay: holdup assay
Set-up: key: below the threshold = too weak to quantify, mostly under pKd 3.1 to 4
Settings: plain residues with an end cap or a label only (N-terminal biotin on a linker: ado-ado)

Row | Binder | pKd
37 | B1 | 5.39
38 | B2 | 5.1

Target: NHERF4_2, Q86UT5
Assay: holdup assay
Set-up: key: below the threshold = too weak to quantify, mostly under pKd 3.1 to 4
Settings: plain residues with an end cap or a label only (N-terminal biotin on a linker: ado-ado)

NHERF4_2, Q86UT5, sequence (Q86UT5 220-308): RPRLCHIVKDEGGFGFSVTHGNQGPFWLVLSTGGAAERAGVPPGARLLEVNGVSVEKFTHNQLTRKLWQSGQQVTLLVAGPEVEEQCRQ

Row | Binder | pKd
39 | B1 | below the threshold
40 | B2 | below the threshold

Target: T10, PDZD7_3, Q9H5P4
T10 sequence (Q9H5P4 857-944, limits assumed, looked up): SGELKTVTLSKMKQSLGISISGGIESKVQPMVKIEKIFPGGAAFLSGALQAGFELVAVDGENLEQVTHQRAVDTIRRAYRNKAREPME
Assay: holdup assay
Set-up: key: below the threshold = too weak to quantify, mostly under pKd 3.1 to 4
Settings: plain residues with an end cap or a label only (N-terminal biotin on a linker: ado-ado)

Row | Binder | pKd
41 | B1 | below the threshold
42 | B2 | 4.92

Target: SCRIB_1, Q14160
Assay: holdup assay
Set-up: key: below the threshold = too weak to quantify, mostly under pKd 3.1 to 4
Settings: plain residues with an end cap or a label only (N-terminal biotin on a linker: ado-ado)

SCRIB_1, Q14160, sequence (Q14160 718-814): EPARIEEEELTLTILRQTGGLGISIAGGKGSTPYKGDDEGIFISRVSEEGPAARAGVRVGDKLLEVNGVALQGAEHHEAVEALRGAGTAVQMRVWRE

Row | Binder | pKd
43 | B1 | below the threshold
44 | B2 | 4.47

Target: T11, SIPA1L2, Q9P2F8
T11 sequence (Q9P2F8 945-1036, limits assumed, looked up): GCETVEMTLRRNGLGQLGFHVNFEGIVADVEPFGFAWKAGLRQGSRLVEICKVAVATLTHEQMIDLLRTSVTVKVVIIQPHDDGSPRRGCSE
Assay: holdup assay
Set-up: key: below the threshold = too weak to quantify, mostly under pKd 3.1 to 4
Settings: plain residues with an end cap or a label only (N-terminal biotin on a linker: ado-ado)

Row | Binder | pKd
45 | B1 | below the threshold
46 | B2 | below the threshold

Target: T12, TIAM2, Q8IVF5
T12 sequence (Q8IVF5 885-986, limits assumed, looked up): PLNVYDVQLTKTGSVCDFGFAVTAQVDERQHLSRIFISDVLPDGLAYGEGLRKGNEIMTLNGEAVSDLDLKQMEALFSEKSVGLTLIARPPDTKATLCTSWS
Assay: holdup assay
Set-up: key: below the threshold = too weak to quantify, mostly under pKd 3.1 to 4
Settings: plain residues with an end cap or a label only (N-terminal biotin on a linker: ado-ado)

Row | Binder | pKd
47 | B1 | below the threshold
48 | B2 | 3.6

Target: T13, TJP3_3, O95049
T13 sequence (O95049 375-456, limits assumed, looked up): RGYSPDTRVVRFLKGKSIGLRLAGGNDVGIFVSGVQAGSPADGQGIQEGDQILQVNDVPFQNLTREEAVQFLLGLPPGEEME
Assay: holdup assay
Set-up: key: below the threshold = too weak to quantify, mostly under pKd 3.1 to 4
Settings: plain residues with an end cap or a label only (N-terminal biotin on a linker: ado-ado)

Row | Binder | pKd
49 | B1 | below the threshold
50 | B2 | 4.18
